From patent US8202973B2, “Method for the production of vitamin K-dependent proteins” (Novo Nordisk Health Care AG, priority 2000, dated 2012)

Test system: CHO-K1 cells
Assay: FVII expression of CHO-K1 cells coexpressing FVII and a free FVII propeptide
Assay type: cell-based
Details: pools of CHO-K1 transfectants, pLN174 plus FVII propeptide in pcDNA3.1+; control with empty vector approximately 1 pg/cell/day
Procedure: CHO K1 cells (ATCC CCI61) were transfected with equal amounts of pLN174 and pLN329 with the Fugene6 method (Boehriner-Mannheim). Transfectants were selected by the addition of methotrexate to 1 μM and G-418 to 0.45 mg/ml. The pool of transfectants were cloned by limiting dilution and FVII expression from the clones was measured.
CHO-K1 cells were transfected with pLN174 and 1) empty pcDNA3.1+ vector or 2) FVII propeptide in pcDNA3.1+, as described in Example 1. Pools of transfectants were analysed for FVII expression and cell numbers. The FVII yields pr. cell pr. 24 hours are outlined in FIG. 3.

Substance | FVII yields pr. cell pr. 24 hours
propeptide of FVII, AVFVTQEEAHGVLHRRRR (SEQ ID NO:7); expressed free from plasmid pLN329 (listed as Homo sapiens) | ~4 pg/cell/day

Target: T1, gamma-glutamyl carboxylase (Homo sapiens, UniProt P38435)
T1 sequence (P38435 1-758): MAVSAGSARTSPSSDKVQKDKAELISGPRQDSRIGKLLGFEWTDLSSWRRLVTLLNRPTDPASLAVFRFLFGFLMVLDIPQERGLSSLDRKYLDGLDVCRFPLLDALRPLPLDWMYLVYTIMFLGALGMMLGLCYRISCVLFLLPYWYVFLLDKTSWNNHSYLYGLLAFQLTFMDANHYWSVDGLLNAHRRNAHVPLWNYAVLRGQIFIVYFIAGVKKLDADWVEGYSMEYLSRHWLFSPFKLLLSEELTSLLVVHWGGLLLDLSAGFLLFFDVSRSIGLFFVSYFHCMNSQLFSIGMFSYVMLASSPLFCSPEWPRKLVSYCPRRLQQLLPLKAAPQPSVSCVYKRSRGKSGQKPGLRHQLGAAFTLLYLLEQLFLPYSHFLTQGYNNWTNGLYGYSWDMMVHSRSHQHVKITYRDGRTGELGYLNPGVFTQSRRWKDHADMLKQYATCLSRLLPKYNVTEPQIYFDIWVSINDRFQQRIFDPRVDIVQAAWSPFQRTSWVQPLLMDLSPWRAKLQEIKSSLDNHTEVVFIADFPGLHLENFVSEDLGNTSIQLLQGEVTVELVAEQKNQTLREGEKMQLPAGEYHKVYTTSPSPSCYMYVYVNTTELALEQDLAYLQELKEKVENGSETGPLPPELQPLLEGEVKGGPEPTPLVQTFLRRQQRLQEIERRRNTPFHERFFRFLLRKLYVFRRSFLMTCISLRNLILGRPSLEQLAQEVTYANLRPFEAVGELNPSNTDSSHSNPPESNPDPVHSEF
Assay: not given
Details: free propeptide of vitamin K-dependent protein, positions -18 to -1; cited from earlier work

Substance | Ki
propeptide of Protein S, ANFLSKQQASQVLVRKRR (SEQ ID NO:4) (listed as Homo sapiens) | 12.2 nM
propeptide of FVII, AVFVTQEEAHGVLHRRRR (SEQ ID NO:7); expressed free from plasmid pLN329 (listed as Homo sapiens) | 11.1 nM
propeptide of Protein C, SVFSSSERAHQVLRIRKR (SEQ ID NO:9) (listed as Homo sapiens) | 230 nM
propeptide of Prothrombin, HVFLAPQQARSLLQRVRR (SEQ ID NO:6) (listed as Homo sapiens) | 277 nM
propeptide of factor X, SLFIRREQANNILARVTR (SEQ ID NO:2) (listed as Homo sapiens) | 2.6 nM
consensus propeptide sequence AVFLSREQANQVLQRRRR (SEQ ID NO:1) (listed as Homo sapiens) | 0.43 nM
propeptide of proline-rich Gla protein 1, RVFLTGEKANSILKRYPR (SEQ ID NO:5) (listed as Homo sapiens) [PRGP1] | 12.8 nM
propeptide of Matrix Gla Protein, NPFINRRNANTFISPQQR (SEQ ID NO:3) | 5.8 nM
